In doi:10.1101/776187:

Legend:
[1] = molecular target: dynactin (bovine (purified from bovine brain))
[2] = molecular target: human cytoplasmic dynein (recombinant complex of DHC, DIC, DLIC, Tctex, Robl and LC8) (human) (UniProt Q14204)

B1: full-length Drosophila Bicaudal D F684I mutant (Dm BicD/F684I) (natural protein)
chain: MSSASNNGPSADQSVQDLQMEVERLTRELDQVSSASAQSAQYGLSLLEEKSALQQKCEELETLYDNTRHELDITQEALTKFQTSQKVTNKTGIEQEDALLNESAARETSLNLQIFDLENELKQLRHELERVRNERDRMLQENSDFGRDKSDSEADRLRLKSELKDLKFRETRMLSEYSELEEENISLQKQVSSLRSSQVEFEGAKHEIRRLTEEVELLNQQVDELANLKKIAEKQMEEALETLQGEREAKYALKKELDGHLNRESMYHISNLAYSIRSNMEDNASNNSDGEEENLALKRLEADLSTELKSPDGTKCDLFSEIHLNELKKLEKQLESMESEKTHLTANLREAQTSLDKSQNELQNFMSRLALLAAHVDALVQLKKQIDVKEQGKEGGQKKDELEQQLRALISQYANWFTLSAKEIDGLKTDIAELQKGLNYTDATTTLRNEVTNLKNKLLATEQKSLDLQSDVQTLTHISQNAGQSLGSARSTLVALSDDLAQLYHLVCTVNGETPTRVLLDHKTDDMSFENDSLTAIQSQFKSDVFIAKPQIVEDLQGLADSVEIKKYVDTVSDQIKYLKTAVEHTIDMNKHKIRSEGGDALEKVNTEEMEELQEQIVKLKSLLSVKREQIGTLRNVLKSNKQTAEVALTNLKSKYENEKIIVSDTMSKLRNELRLLKEDAATISSLRAMFAARCEEYVTQVDDLNRQLEAAEEEKKTLNQLLRLAVQQKLALTQRLEEMEMDREMRHVRRPMPAQRGTSGKSSFSTRPSSRNPASSNANPF
processive run length of DDB^F684I on microtubules, single molecule TIRF [1]: 3.3 µm
speed of DDB^F684I on microtubules, single molecule TIRF [1]: 0.43 µm/s
processive run length of DDB^F684I on microtubules, single molecule TIRF [2]: 3.3 µm
speed of DDB^F684I on microtubules, single molecule TIRF [2]: 0.43 µm/s
